In paper PMC4515144 (Chemistry & biology, 2015):
Each block holds one molecule with its values, some of them ahead of it. *: point of attachment. P‑1 benzyl acid (p-CN) = benzyl acid lacking the N-terminal amino group (p-cyano substituted), replacing Tyr at P-1, N#Cc1ccc(CCC(=O)*)cc1; P‑1 benzyl acid (p-SO2NH2) = p-sulfonamide (SO2NH2) benzyl acid lacking the N-terminal amino group, replacing Tyr P-1; P‑1 benzyl acid (m-CH3) = m-methyl benzyl acid lacking the N-terminal amino group, replacing Tyr P-1; P‑1 benzyl acid (m-Cl) = m-chloro benzyl acid lacking the N-terminal amino group, replacing Tyr P-1; P‑1 benzyl acid (m-F) = m-fluoro benzyl acid lacking the N-terminal amino group, replacing Tyr P-1; P‑1 benzyl acid (p-NH2) = benzyl acid at P-1 lacking the N-terminal amino group, replacing Tyr P-1; Propanoyl(3-(4-F-phenyl)) = O=C(CCc1ccc(F)cc1)*

Tests used:
[1] = cited from earlier work
[2] = mice; ref Singla et al., 2002; Zhang et al., 2013; cited from earlier work
[3] = target: EphA2-LBD (residues 27-200) (Homo sapiens, UniProt P29317); experiment: 1D 1H-aliph NMR binding assay, rank ordering; conditions: 10 μM EphA2-LBD, 100 μM compound; arbitrary scale 1 to 5
Sequence of EphA2-LBD (residues 27-200) (P29317 27-200): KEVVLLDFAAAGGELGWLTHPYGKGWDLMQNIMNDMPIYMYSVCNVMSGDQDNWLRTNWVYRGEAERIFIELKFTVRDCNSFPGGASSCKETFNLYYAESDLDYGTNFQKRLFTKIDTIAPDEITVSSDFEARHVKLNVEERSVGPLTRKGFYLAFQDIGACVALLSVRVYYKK

[4] = Plasma stability by LC-MS; conditions: rat plasma, 37 °C; 123B7 versus YSA, 123B4 versus YSA-9mer
[5] = target: EphA2 ligand binding domain (residues 27-200) (UniProt P29317 27-200); experiment: NMR titration
Sequence of EphA2 ligand binding domain (residues 27-200) (P29317 27-200): as above

Molecule: ySAYPDSVP-Nle-Hsr-S [dYNH]
half-life in plasma [1]: > 1 h

Molecule: CC(=O)O[C@H]1C(=O)[C@@]2(C)[C@H]([C@H](OC(=O)c3ccccc3)[C@]3(O)C[C@H](OC(=O)[C@H](O)[C@@H](NC(=O)c4ccccc4)c4ccccc4)C(C)=C1C3(C)C)[C@]1(OC(C)=O)CO[C@@H]1C[C@@H]2O [PTX, paclitaxel]
single dose MTD [2]: < 30 mg/kg

Molecule: {P‑1 benzyl acid (m-Cl)}-SAYPDSVP-NH2 [120G8]
Rank ordering by NMR [5]: 4 rank, arbitrary scale 1-5

Molecule: {P‑1 benzyl acid (p-CN)}-SAYPDSVP-NH2 [120A5]
Rank ordering by NMR [5]: 3 rank, arbitrary scale 1-5

Molecule: {Propanoyl(3-(4-F-phenyl))}-SAYPDSVP-NH2 [120F11]
Rank ordering by NMR [5]: 2 rank, arbitrary scale 1-5

Molecule: {P‑1 benzyl acid (m-F)}-SAYPDSVP-NH2 [120G7]
Rank ordering by NMR [5]: 2 rank, arbitrary scale 1-5

Molecule: {P‑1 benzyl acid (p-NH2)}-SAYPDSVP-NH2 [120H5]
Rank ordering by NMR [5]: 1 rank, arbitrary scale 1-5

Continued, values first:

Rank ordering by NMR [3]: 1
Molecule: 120H5 ({P‑1 benzyl acid (p-NH2)}-SAYPDSVP-NH2)

plasma stability versus corresponding non-optimized peptide [4]: significantly improved peptide stability
Molecule: CSCC[C@H](NC(=O)[C@H](CCSC)NC(=O)[C@@H]1CCCN1C(=O)[C@@H](NC(=O)[C@H](CO)NC(=O)[C@H](CC(=O)O)NC(=O)[C@@H]1CCCN1C(=O)[C@H](Cc1ccc(O)cc1)NC(=O)[C@H](C)NC(=O)[C@H](CO)NC(=O)COc1ccc(F)c(Cl)c1)C(C)C)C(=O)N[C@@H](CO)C(N)=O [123B7]

Rank ordering by NMR [5]: 4 rank, arbitrary scale 1-5
Molecule: {P‑1 benzyl acid (m-CH3)}-SAYPDSVP-NH2 [123A12]

Rank ordering by NMR [5]: 3 rank, arbitrary scale 1-5
Molecule: {P‑1 benzyl acid (p-SO2NH2)}-SAYPDSVP-NH2 [120H8]
